Numbering of substitutions follows the chain as printed.
T1: LZTR1 R810W-FLAG (human, UniProt Q8N653 1-840)
T1 construct: Stably expressed in U87 cells by lentivirus; also called LZTR1-FLAG-R810W; LZTR1 RW; not shown: FLAG tag
T1 sequence (looked up): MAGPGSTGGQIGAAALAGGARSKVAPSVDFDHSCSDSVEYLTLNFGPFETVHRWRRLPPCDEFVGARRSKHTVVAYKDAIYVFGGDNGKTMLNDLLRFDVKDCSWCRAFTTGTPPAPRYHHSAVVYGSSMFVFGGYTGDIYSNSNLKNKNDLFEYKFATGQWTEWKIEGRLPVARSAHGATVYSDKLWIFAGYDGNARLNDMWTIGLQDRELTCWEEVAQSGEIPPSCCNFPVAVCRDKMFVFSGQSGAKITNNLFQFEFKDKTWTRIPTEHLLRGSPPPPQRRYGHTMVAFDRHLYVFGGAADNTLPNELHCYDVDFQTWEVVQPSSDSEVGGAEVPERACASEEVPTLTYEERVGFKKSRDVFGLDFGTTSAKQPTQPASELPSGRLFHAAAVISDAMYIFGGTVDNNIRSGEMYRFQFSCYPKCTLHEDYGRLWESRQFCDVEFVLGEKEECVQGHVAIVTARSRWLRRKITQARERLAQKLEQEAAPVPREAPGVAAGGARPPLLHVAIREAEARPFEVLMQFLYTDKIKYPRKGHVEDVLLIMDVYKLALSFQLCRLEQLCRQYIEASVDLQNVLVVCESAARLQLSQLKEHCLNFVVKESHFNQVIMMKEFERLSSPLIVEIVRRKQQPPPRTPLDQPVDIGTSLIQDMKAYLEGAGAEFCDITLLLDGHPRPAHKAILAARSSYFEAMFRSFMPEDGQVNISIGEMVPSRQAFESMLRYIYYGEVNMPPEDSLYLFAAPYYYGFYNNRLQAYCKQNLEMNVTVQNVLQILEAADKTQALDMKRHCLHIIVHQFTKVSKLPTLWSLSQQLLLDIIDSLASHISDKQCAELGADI

T2: LZTR1-FLAG (human, UniProt Q8N653 1-840)
T2 construct: Expressed in HEK 293T, HeLa or U87 cells; used as cell lysate; also called LZTR1 wild type-FLAG; LZTR1 WT; not shown: FLAG tag at the C-terminus
T2 sequence (looked up): T1 sequence (looked up) with W810R

B1: SCYL1 (other, human, UniProt Q96KG9 1-808, looked up)
chain: MWFFARDPVRDFPFELIPEPPEGGLPGPWALHRGRKKATGSPVSIFVYDVKPGAEEQTQVAKAAFKRFKTLRHPNILAYIDGLETEKCLHVVTEAVTPLGIYLKARVEAGGLKELEISWGLHQIVKALSFLVNDCSLIHNNVCMAAVFVDRAGEWKLGGLDYMYSAQGNGGGPPRKGIPELEQYDPPELADSSGRVVREKWSADMWRLGCLIWEVFNGPLPRAAALRNPGKIPKTLVPHYCELVGANPKVRPNPARFLQNCRAPGGFMSNRFVETNLFLEEIQIKEPAEKQKFFQELSKSLDAFPEDFCRHKVLPQLLTAFEFGNAGAVVLTPLFKVGKFLSAEEYQQKIIPVVVKMFSSTDRAMRIRLLQQMEQFIQYLDEPTVNTQIFPHVVHGFLDTNPAIREQTVKSMLLLAPKLNEANLNVELMKHFARLQAKDEQGPIRCNTTVCLGKIGSYLSASTRHRVLTSAFSRATRDPFAPSRVAGVLGFAATHNLYSMNDCAQKILPVLCGLTVDPEKSVRDQAFKAIRSFLSKLESVSEDPTQLEEVEKDVHAASSPGMGGAAASWAGWAVTGVSSLTSKLIRSHPTTAPTETNIPQRPTPEGVPAPAPTPVPATPTTSGHWETQEEDKDTAEDSSTADRWDDEDWGSLEQEAESVLAQQDDWSTGGQVSRASQVSNSDHKSSKSPESDWSSWEAEGSWEQGWQEPSSQEPPPDGTRLASEYNWGGPESSDKGDPFATLSARPSTQPRPDSWGEDNWEGLETDSRQVKAELARKKREERRREMEAKRAERKVAKGPMKLGARKLD
B2: SL C39A14 (other, human, UniProt Q15043 31-492, looked up)
chain: SSLGAPAISAASFLQDLIHRYGEGDSLTLQQLKALLNHLDVGVGRGNVTQHVQGHRNLSTCFSSGDLFTAHNFSEQSRIGSSELQEFCPTILQQLDSRACTSENQENEENEQTEEGRPSAVEVWGYGLLCVTVISLCSLLGASVVPFMKKTFYKRLLLYFIALAIGTLYSNALFQLIPEAFGFNPLEDYYVSKSAVVFGGFYLFFFTEKILKILLKQKNEHHHGHSHYASESLPSKKDQEEGVMEKLQNGDLDHMIPQHCSSELDGKAPMVDEKVIVGSLSVQDLQASQSACYWLKGVRYSDIGTLAWMITLSDGLHNFIDGLAIGASFTVSVFQGISTSVAILCEEFPHELGDFVILLNAGMSIQQALFFNFLSACCCYLGLAFGILAGSHFSANWIFALAGGMFLYISLADMFPEMNEVCQEDERKGSILIPFIIQNLGLLTGFTIMVVLTMYSGQIQIG
notes: Printed as SL C39A14; read as SLC39A14
B3: SHCBP1 (other, human, UniProt Q8NEM2 2-672, looked up)
chain: ADGSLTGGGLEAAAMAPERMGWAVEQELASLEKGLFQDEDSCSDCSYRDKPGSSLQSFMPEGKTFFPEIFQTNQLLFYERFRAYQDYILADCKASEVQEFTAEFLEKVLEPSGWRAVWHTNVFKVLVEITDVDFAALKAVVRLAEPYLCDSQVSTFTMECMKELLDLKEHRLPLQELWVVFDDSGVFDQTALAIEHVRFFYQNIWRSWDEEEEDEYDYFVRCVEPRLRLHYDILEDRVPSGLIVDYHNLLSQCEESYRKFLNLRSSLSNCNSDSEQENISMVEGLKLYSEMEQLKQKLKLIENPLLRYVFGYQKNSNIQAKGVRSSGQKITHVVSSTMMAGLLRSLLTDRLCQEPGEEEREIQFHSDPLSAINACFEGDTVIVCPGHYVVHGTFSIADSIELEGYGLPDDIVIEKRGKGDTFVDCTGADIKISGIKFVQHDAVEGILIVHRGKTTLENCVLQCETTGVTVRTSAEFLMKNSDLYGAKGAGIEIYPGSQCTLSDNGIHHCKEGILIKDFLDEHYDIPKISMVNNIIHNNEGYGVVLVKPTIFSDLQENAEDGTEENKALKIQTSGEPDVAERVDLEELIECATGKMELCARTDPSEQVEGNCEIVNELIAASTQKGQIKKKRLSELGITQADDNLMSQEMFVGIVGNQFKWNGKGSFGTFLF
B4: SMS (other, human, UniProt P52788 2-366, looked up)
chain: AAARHSTLDFMLGAKADGETILKGLQSIFQEQGMAESVHTWQDHGYLATYTNKNGSFANLRIYPHGLVLLDLQSYDGDAQGKEEIDSILNKVEERMKELSQDSTGRVKRLPPIVRGGAIDRYWPTADGRLVEYDIDEVVYDEDSPYQNIKILHSKQFGNILILSGDVNLAESDLAYTRAIMGSGKEDYTGKDVLILGGGDGGILCEIVKLKPKMVTMVEIDQMVIDGCKKYMRKTCGDVLDNLKGDCYQVLIEDCIPVLKRYAKEGREFDYVINDLTAVPISTSPEEDSTWEFLRLILDLSMKVLKQDGKYFTQGNCVNLTEALSLYEEQLGRLYCPVEFSKEIVCVPSYLELWVFYTVWKKAKP
B5: SPRYD3 (other, human, UniProt Q8NCJ5 1-442, looked up)
chain: MRRTRRPRFVLMNKMDDLNLHYRFLNWRRRIREIREVRAFRYQERFKHILVDGDTLSYHGNSGEVGCYVASRPLTKDSNYFEVSIVDSGVRGTIAVGLVPQYYSLDHQPGWLPDSVAYHADDGKLYNGRAKGRQFGSKCNSGDRIGCGIEPVSFDVQTAQIFFTKNGKRVGSTIMPMSPDGLFPAVGMHSLGEEVRLHLNAELGREDDSVMMVDSYEDEWGRLHDVRVCGTLLEYLGKGKSIVDVGLAQARHPLSTRSHYFEVEIVDPGEKCYIALGLARKDYPKNRHPGWSRGSVAYHADDGKIFHGSGVGDPFGPRCYKGDIMGCGIMFPRDYILDSEGDSDDSCDTVILSPTARAVRNVRNVMYLHQEGEEEEEEEEEEEDGEEIEPEHEGRKVVVFFTRNGKIIGKKDAVVPSGGFFPTIGMLSCGEKVKVDLHPLSG
B6: SMG9 (other, human, UniProt Q9H0W8 2-520, looked up)
chain: SESGHSQPGLYGIERRRRWKEPGSGGPQNLSGPGGRERDYIAPWERERRDASEETSTSVMQKTPIILSKPPAERSKQPPPPTAPAAPPAPAPLEKPIVLMKPREEGKGPVAVTGASTPEGTAPPPPAAPAPPKGEKEGQRPTQPVYQIQNRGMGTAAPAAMDPVVGQAKLLPPERMKHSIKLVDDQMNWCDSAIEYLLDQTDVLVVGVLGLQGTGKSMVMSLLSANTPEEDQRTYVFRAQSAEMKERGGNQTSGIDFFITQERIVFLDTQPILSPSILDHLINNDRKLPPEYNLPHTYVEMQSLQIAAFLFTVCHVVIVVQDWFTDLSLYRFLQTAEMVKPSTPSPSHESSSSSGSDEGTEYYPHLVFLQNKARREDFCPRKLRQMHLMIDQLMAHSHLRYKGTLSMLQCNVFPGLPPDFLDSEVNLFLVPFMDSEAESENPPRAGPGSSPLFSLLPGYRGHPSFQSLVSKLRSQVMSMARPQLSHTILTEKNWFHYAARIWDGVRKSSALAEYSRLLA
B7: SHKBP1 (other, human, UniProt Q8TBC3 2-707, looked up)
chain: AAAATAAEGVPSRGPPGEVIHLNVGGKRFSTSRQTLTWIPDSFFSSLLSGRISTLKDETGAIFIDRDPTVFAPILNFLRTKELDPRGVHGSSLLHEAQFYGLTPLVRRLQLREELDRSSCGNVLFNGYLPPPVFPVKRRNRHSLVGPQQLGGRPAPVRRSNTMPPNLGNAGLLGRMLDEKTPPSPSGQPEEPGMVRLVCGHHNWIAVAYTQFLVCYRLKEASGWQLVFSSPRLDWPIERLALTARVHGGALGEHDKMVAAATGSEILLWALQAEGGGSEIGVFHLGVPVEALFFVGNQLIATSHTGRIGVWNAVTKHWQVQEVQPITSYDAAGSFLLLGCNNGSIYYVDVQKFPLRMKDNDLLVSELYRDPAEDGVTALSVYLTPKTSDSGNWIEIAYGTSSGGVRVIVQHPETVGSGPQLFQTFTVHRSPVTKIMLSEKHLISVCADNNHVRTWSVTRFRGMISTQPGSTPLASFKILALESADGHGGCSAGNDIGPYGERDDQQVFIQKVVPSASQLFVRLSSTGQRVCSVRSVDGSPTTAFTVLECEGSRRLGSRPRRYLLTGQANGSLAMWDLTTAMDGLGQAPAGGLTEQELMEQLEHCELAPPAPSAPSWGCLPSPSPRISLTSLHSASSNTSLSGHRGSPSPPQAEARRRGGGSFVERCQELVRSGPDLRRPPTPAPWPSSGLGTPLTPPKMKLNETSF

Molecular target: T1, LZTR1 R810W-FLAG
Assay: IP/MS, LZTR1 R810W-FLAG, U87
How it was run: (§1)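 Extracted peptides in 3% acetonitrile/0.1% formic acid ran on a 50 cm C18 column into an Orbitrap Fusion, with MaxQuant identification and spectral counting.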

binding result | Binder
binds | B1
binds | B2
binds | B3
binds | B4
binds | B5
binds | B6
binds | B7

Molecular target: T2, LZTR1-FLAG
Assay: IP/MS, LZTR1 wild type-FLAG, U87
How it was run: as §1

binding result | Binder
binds | B1
binds | B2
binds | B3
binds | B4
binds | B5
binds | B6
binds | B7
